Test results published in article PMC3543496 (FEBS letters, 2012).
Residue numbers refer to the chain shown, from its start. In names and notes the source's numbering stands. Where two headings read alike, the source gives them in different places.

B1: WT clathrin hub (bovine clathrin heavy chain aa1074-1675) (domain or fragment, UniProt P49951 1074-1675, looked up)
chain: KFDVNTSAVQVLIEHIGNLDRAYEFAERCNEPAVWSQLAKAQLQKGMVKEAIDSYIKADDPSSYMEVVQAANTSGNWEELVKYLQMARKKARESYVETELIFALAKTNRLAELEEFINGPNNAHIQQVGDRCYDEKMYDAAKLLYNNVSNFGRLASTLVHLGEYQAAVDGARKANSTRTWKEVCFACVDGKEFRLAQMCGLHIVVHADELEELINYYQDRGYFEELITMLEAALGLERAHMGMFTELAILYSKFKPQKMREHLELFWSRVNIPKVLRAAEQAHLWAELVFLYDKYEEYDNAIITMMNHPTDAWKEGQFKDIITKVANVELYYRAIQFYLEFKPLLLNDLLMVLSPRLDHTRAVNYFSKVKQLPLVKPYLRSVQNHNNKSVNESLNNLFITEEDYQALRTSIDAYDNFDNISLAQRLEKHELIEFRRIAAYLFKGNNRWKQSVELCKKDSLYKDAMQYASESKDTELAEELLQWFLQEEKRECFGACLFTCYDLLRPDVVLETAWRHNIMDFAMPYFIQVMKEYLTKVDKLDASESLRKEEEQATETQPIVYGQPQLMLTAGPSVAVPPQAPFGYGYTAPAYGQPQPGFGYSM
B2: C1573A clathrin hub (bovine clathrin heavy chain aa1074-1675, C1573A) (domain or fragment, UniProt P49951 1074-1675, looked up)
chain: B1 chain with C500A

Tests used:
SEC-MALS [1] = target: the molecule itself; assay: SEC-MALS
SEC-MALS [2] = target: the molecule itself; assay: SEC-MALS; remark: listed apart in the source

| Protein | stoichiometry N (SEC-MALS [1]) | stoichiometry N (SEC-MALS [2]) |
| --- | --- | --- |
| B1 | 3 |  |
| B2 | ~2 | ~3 |
